This note sets out measurements from article PMC6041257.

This test has as its target SUFU (UniProt Q9UMX1). The test can be described thus: co-immunoprecipitation (assumed). The settings on record: reference: GLI1-WT; sites S201,S204,S243.

Take “GLI1 (from UniProt P08151) GLI1-S201/204/243A”: the “binding against the reference” value was “weaker”.
